Residue numbers refer to the chain shown, from its start.
Experiments:
Test in all cases: SPR, KD relative to WT C2;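 further: biacore SPR at 37 °C, anti-C2 mAbs captured on anti-human IgG chips with alanine or serine point mutants of C2 as analyte, KD from 1:1 fit compared with wild-type C2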
human C2 I272A = target: T1, human C2 I272A (human, UniProt P06681 21-752)
T1 sequence: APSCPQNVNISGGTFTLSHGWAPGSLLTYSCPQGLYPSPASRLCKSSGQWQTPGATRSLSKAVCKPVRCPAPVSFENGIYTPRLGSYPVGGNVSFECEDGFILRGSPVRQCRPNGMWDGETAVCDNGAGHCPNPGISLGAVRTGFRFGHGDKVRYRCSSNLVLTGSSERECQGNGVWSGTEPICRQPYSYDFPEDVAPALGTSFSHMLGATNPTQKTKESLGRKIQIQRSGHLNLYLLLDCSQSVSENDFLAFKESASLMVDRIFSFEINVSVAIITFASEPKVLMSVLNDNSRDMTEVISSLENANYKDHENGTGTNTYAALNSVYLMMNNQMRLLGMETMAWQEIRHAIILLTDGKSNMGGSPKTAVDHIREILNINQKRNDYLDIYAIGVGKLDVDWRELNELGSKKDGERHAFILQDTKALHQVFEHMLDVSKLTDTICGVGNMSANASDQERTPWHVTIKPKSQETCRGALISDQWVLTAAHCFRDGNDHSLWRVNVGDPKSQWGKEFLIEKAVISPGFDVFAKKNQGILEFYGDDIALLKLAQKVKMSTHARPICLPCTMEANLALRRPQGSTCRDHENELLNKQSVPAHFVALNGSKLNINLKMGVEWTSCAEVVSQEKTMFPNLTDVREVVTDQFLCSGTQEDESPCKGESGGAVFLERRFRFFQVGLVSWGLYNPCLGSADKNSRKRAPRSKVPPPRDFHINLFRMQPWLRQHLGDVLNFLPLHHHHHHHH
Description: (§1) Surface plasmon resonance (SPR, Biacore) was used for all binding affinity analyses. In brief, goat anti-human IgG was directly immobilised onto the carboxymethyl dextran surface of CM5 sensorchips to approximately 12,000 RU using standard NHS/EDC chemistry at pH 5. The immobilised antibody surface was pre-conditioned with ten injections of polyclonal human IgG (Privigen 60 s) prepared at 1 μg/mL. Ligands (anti-C2 mAbs) were captured at the beginning of each cycle as described below. An adjacent spot or flow cell in which only Polyclonal IgG was capture was used as a reference surface. The goat anti-human IgG Fc antibody surface was regenerate in 100 mM H3PO4, injected for 45 seconds at the end of each cycle. Experiments were performed at 37° C. and the flow rate of each experiment was kept constant at 30 μL/min.
(§2) Sensogram data was double-referenced against a reference anti-IgG surface (i.e. minus anti-C2 mAb) and blank buffer injections obtained within each experiment. The binding data was fit to 1:1 (kinetic or steady-state) model using local Rmax and null refraction index (RI=0) when appropriate. Buffers and solutions were filtered (0.22 μm) prior to use.

human C2 N380A = target: T2, human C2 N380A (human, UniProt P06681 21-752)
T2 sequence: T1 sequence with A252I, N360A
Description: as §1, §2

human C2 D441A = target: T3, human C2 D441A (human, UniProt P06681 21-752)
T3 sequence: T1 sequence with A252I, D421A
Description: as §1, §2

human C2 H446A = target: T4, human C2 H446A (human, UniProt P06681 21-752)
T4 sequence: T1 sequence with A252I, H426A
Description: as §1, §2

B1: RF16-242 (antibody, human IgG4 S228P, lambda, V domains shown)
VH: EVQLLQSGAEVKKPGESLKISCKGSGYSFTSYWIGWVRQMPGKGLEWMGIIYPGDSDTRYSPSFQGQVTISADKSISTAYLQWSSLKASDTAMYYCARRGHYGDYFDYWGQGTLVTVSS
VL: SYELTQPPSVSVSPGQTARITCSGDALPKKYAYWYHQKSGQAPVLVIYEDRRRPSEIPERFSGSSSGTMATLTITGAQVEDEGVYFCYSRDRAGNQRVFGGGTQLTVLG
notes: pH-dependent anti-C2 antibody from a phage display library
**Q.** How did the Fold diff (human C2 I272A) turn out when B1 was run?
**A.** 1 fold

**Q.** And the Fold diff (human C2 N380A)?
**A.** 1 fold

**Q.** What about the Fold diff (human C2 D441A) of the same binder?
**A.** 16 fold

**Q.** What about the Fold diff (human C2 H446A) of the same binder?
**A.** 2 fold
